Numbering of substitutions follows the chain as printed. In names and notes the source's numbering stands.
Assays:
[1] = target: T1, Mm GS (Methanosarcina mazei, UniProt Q8PY99); test: cryo-EM structure, […] A; type: binding; settings: formed in situ from ATP; with Met-Sox-P; 5 mM MgCl2, pH 7.5; active site
T1 construct: gene glnA1; labile dodecamer (two hexamer rings), active site between two subunits; catalytic residues Asp57, Glu307

[2] = target: the molecule itself; test: crystal structure; Mm GS-GlnK1 complex formed by mixing ~2:1 (excess GlnK1) and SEC; 30% PEG 400, 0.1 M sodium cacodylate pH 6.5, 0.1 M LiSO4
[3] = target: T2, Methanosarcina mazei glutamine synthetase (Methanosarcina mazei), Q8PY99; test: fluorescence polarisation; apparent; GS titrated to saturation into 1 nM Fluorescein-12-ATP, then GlnK1 titrated in; 25 mM Tris pH 7.5, 100 mM NaCl, 1 mM MgCl2; settings: remark: other sources report otherwise
T2 chain: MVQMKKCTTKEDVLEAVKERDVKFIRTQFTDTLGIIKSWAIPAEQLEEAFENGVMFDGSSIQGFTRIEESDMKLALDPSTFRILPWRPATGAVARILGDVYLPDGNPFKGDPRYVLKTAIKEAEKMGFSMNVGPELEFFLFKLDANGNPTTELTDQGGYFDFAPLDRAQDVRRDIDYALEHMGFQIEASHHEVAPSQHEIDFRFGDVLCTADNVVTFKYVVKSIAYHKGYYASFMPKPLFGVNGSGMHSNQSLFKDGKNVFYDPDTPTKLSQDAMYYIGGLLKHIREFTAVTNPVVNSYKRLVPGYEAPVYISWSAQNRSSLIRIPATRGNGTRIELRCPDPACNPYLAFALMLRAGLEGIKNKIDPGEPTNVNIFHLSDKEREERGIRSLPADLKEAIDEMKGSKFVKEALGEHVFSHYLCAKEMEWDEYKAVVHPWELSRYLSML

[4] = target: the molecule itself; test: mass photometry; protein at 75 nM final, 20 mM Tris pH 7.5, 150 mM NaCl, room temperature; Refeyn OneMP; four measurements
[5] = target: the molecule itself; test: cryo-EM structure; apo Mm GS at ~20 uM (1.0 mg/mL), 12.5 mM Tris pH 7.5, 5 mM MgCl2, 150 mM NaCl, 2.5% glycerol, 1 mM bME; dodecamer and partial oligomer from one dataset
[6] = target: the molecule itself; test: crystal structure; Mm GS(R167L-A168G), 35% PEG 200, 0.1 M sodium citrate pH 5.5; three subunits in the asymmetric unit, symmetry generates the dodecamer

Nc1ncnc2c1ncn2[C@@H]1O[C@H](COP(=O)(O)OP(=O)(O)O)[C@@H](O)[C@H]1O [ADP]
cryo-EM structure, 2.7 A [1]: In the Mm GS TS structure, the ADP is anchored into the active site pocket

B1: Methanosarcina mazei GlnK1 (natural protein)
chain: MVAMKYVIAMIRPERLDAVKRELQKIEVSRLTVSSVSGYGAQKGYMEIYRAMEYDANLLEKIKIEIAVNDEFLEPTIEAIKTGAKGSDGYVGSGKIFVLPLENVIRIRTNETGPEAI
notes: GlnK1, PII family nitrogen regulatory protein of Methanosarcina mazei; gene bought from Genscript, in pET15b; Trimer in the crystal structure of the complex with GS; also called Mm GlnK1; WT GlnK1; source: E. coli C41(DE3), purified (cobalt NTA TALON)
stoichiometry N [2]: 3
Kd [3]: 6.4 µM

B2: Methanosarcina mazei glutamine synthetase (enzyme)
chain: T2 chain
notes: glutamine synthetase (GS) of Methanosarcina mazei; gene bought from Genscript, in pET15b; Oligomeric state depends on concentration: dimers at 75 nM, dodecamers and partial oligomers at about 20 uM (1 mg/mL); also called Mm GS; WT Mm GS; source: E. coli C41(DE3), purified (cobalt NTA TALON)
stoichiometry N [4]: 2
stoichiometry N [5]: 12

B3: Mm GS(R167L-A168G) (enzyme, Methanosarcina mazei)
chain: T2 chain with R167L, A168G
notes: glutamine synthetase (GS) of Methanosarcina mazei with R167L and A168G; gene bought from Genscript, in pET15b; everywhere else R167L; also called mutant Mm GS; source: E. coli C41(DE3), purified (cobalt NTA TALON)
stoichiometry N [6]: 12

B4: Bacillus subtilis glutamine synthetase (enzyme)
chain: AKYTREDIEKLVKEENVKYIRLQFTDILGTIKNVEIPVSQLGKALDNKVMFDGSSIEGFVRIEESDMYLYPDLNTFVIFPWTAEKGKVARFICDIYNPDGTPFEGDPRNNLKRILKEMEDLGFSDFNLGPEPEFFLFKLDEKGEPTLELNDKGGYFDLAPTDLGENCRRDIVLELEEMGFEIEASHHEVAPGQHEIDFKYAGAVRSCDDIQTFKLVVKTIARKHGLHATFMPKPLFGVNGSGMHCNLSLFKNGVNAFFDENADLQLSETAKHFIAGIVKHATSFTAVTNPTVNSYKRLVPGYEAPCYVAWSAQNRSPLIRIPASRGISTRVEVRSVDPAANPYLALSVLLAAGLDGIKNKLEAPAPIDRNIYVMSKEERMENGIVDLPATLAEALEEFKSNEVMVKALGEHLFEHFIEAKEIEWDMFRTQVHPWEREQYMSQY
notes: glutamine synthetase (GS) of Bacillus subtilis; also called Bs GS; apo Bs GS
stoichiometry N [4]: 12

— paper PMC10651883, “M. mazei glutamine synthetase and glutamine synthetase-GlnK1 structures reveal enzyme regulation by oligomer modulation” (Nature Communications, 2023)
